We go through twelve molecules from patent publication US20160046672A1, “STAPLING eIF4E INTERACTING PEPTIDES” (AGENCY FOR SCIENCE, TECHNOLOGY AND RESEARCH, priority 2013, published 2016).

Data set [1] can be described thus: Circular dichroism, percent α-helicity in solution. Type of data set: physicochemical. To be noted: CD, 5 mM sodium phosphate buffer pH 7.0. Here is the method:
CD was measured on a JASCO J-810 spectropolarimeter, and spectra were either recorded with a quartz cuvette (Helmer) with a pathlength of 0.01 cm or 0.1 cm in 5 mM sodium phosphate buffer (pH 7.0). FUV CD spectra were recorded from 260 nm to 200 nm at a peptide concentration of either 2 mg/ml or 0.5 mg/ml, respectively. The CD signal was converted into mean residue ellipticity in units of degree·cm^2·dmol^−1·residue^−1. CD spectra were recorded at a data pitch of 0.2 nm at 50 nm min^−1, a response time of 2 s, and a bandwidth of […]. Once converted to mean residue ellipticity, percent α-helicity can be calculated with equation (1) and (2): […]
On the technique in general: CD spectra are sensitive to the conformation of chiral molecules.

The nature of another data set: circular dichroism. Conditions: 5 mM sodium phosphate; pH 7.0; ns °C; 0.5 or 2 mg/mL.
In the next data set the target is T1, eIF4E (Homo sapiens, UniProt P06730).
T1 construct: made in house
T1 sequence (P06730 whole entry): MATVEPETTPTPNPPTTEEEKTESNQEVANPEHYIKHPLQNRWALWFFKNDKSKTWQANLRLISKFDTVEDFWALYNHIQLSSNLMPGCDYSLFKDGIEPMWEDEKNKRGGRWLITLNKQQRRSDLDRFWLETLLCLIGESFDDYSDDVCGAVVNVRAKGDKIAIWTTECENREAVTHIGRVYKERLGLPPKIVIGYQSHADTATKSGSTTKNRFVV
Briefly: eIF4E affinity (SPR/FP, method not named). Type of data set: binding. Here is the method: Apparent Kd values were determined for a variety of molecules via competitive anisotropy anisotropy experiments. Titrations were carried out with the concentrations eIF4E held constant at 200 nM, respectively and the labeled peptide at 50 nM. The competing molecules were then titrated against complex of the FAM labeled peptide and protein. Apparent Kd values were determined by fitting the experimental data to the equations shown below: […]
Six buffer blanks were first injected to equilibrate the instrument fully and then a solvent correction curve was performed followed by a further two blank injections. […] Using a flow rate of 50 μl/min, compounds were injected for 60 s and dissociation was monitored for 180 s. The data collection rate was 10 Hz. Kds were determined using the BiaEvaluation software (Biacore) and calculated kinetically from the dissociation and association phase data for each of the peptides. The kinetic data were fitted to 1:1 binding models. Each individual peptide Kd was determined from three separate titrations. Within each titration at least two concentration points were duplicated to ensure stability and robustness of the chip surface.

Positions of bridges follow the written chain, without caps; N, C: chain ends. Non-standard residues stand in square brackets, D forms with d. Residues, ends and D or L forms follow the SMILES beside them. S5 = C=CCCC[C@](C)(N)C(=O)O; Abu = CC[C@H](N)C(=O)O; Aib = CC(C)(N)C(=O)O

As to `CC(=O)N[C@@H](CCCCN)C(=O)N[C@@H](CCCCN)C(=O)N[C@@H](CCCNC(=N)N)C(=O)N[C@@H](Cc1ccc(O)cc1)C(=O)N[C@@H](CO)C(=O)N[C@@H](CCCNC(=N)N)C(=O)N[C@@]1(C)CCCC=CCCC[C@@](C)(C(=O)N[C@@H](CC(C)C)C(N)=O)NC(=O)[C@H](CC(C)C)NC(=O)[C@H](CC(C)C)NC(=O)[C@H](CCC(N)=O)NC1=O` (relative stereo) [sTIP-04, KKRYSR*QLL*L], the “Helicity (%)” value in data set [1] is 63%.
Turning to `CC[C@H](NC(=O)[C@]1(C)CCCC=CCCC[C@](C)(NC(=O)[C@H](CCCNC(=N)N)NC(=O)[C@H](CO)NC(=O)[C@H](Cc2ccc(O)cc2)NC(=O)[C@H](CCCNC(=N)N)NC(=O)[C@H](CCCCN)NC(=O)[C@H](CCCCN)NC(C)=O)C(=O)N[C@@H](Cc2ccccc2)C(=O)N[C@@H](CC(C)C)C(=O)N[C@@H](CC(C)C)C(=O)N1)C(N)=O` (relative stereo) [sTIP-01^F12&, KKRYSR*FLL*&], the helicity in the data set “circular dichroism” was 44%. For the same molecule, the “affinity / binding to eIF4E (in words)” value on eIF4E was “improved Kd values as compared to sTIP-01”. Moreover, the “Helicity (%)” value in data set [1] is given as 44%.
Molecule `CC(=O)N[C@@H](CCCCN)C(=O)N[C@@H](CCCCN)C(=O)N[C@@H](CCCNC(=N)N)C(=O)N[C@@H](Cc1ccc(O)cc1)C(=O)N[C@@H](CO)C(=O)N[C@@H](CCCNC(=N)N)C(=O)NC(C)(C)C(=O)N[C@@H](C)C(=O)N[C@@H](CC(C)C)C(=O)N[C@@H](CC(C)C)C(=O)NC(C)(C)C(=O)N[C@@H](Cc1ccccc1)C(N)=O` [TIP-01^F8A, KKRYSRXALLXF] (Ac-KKRYSR[Aib]ALL[Aib]F-NH2) showed a helicity in the data set “circular dichroism” of 10%. Further, the “Helicity (%)” value in data set [1] is given as 10%.
In “circular dichroism”, `CC(=O)N[C@@H](CCCCN)C(=O)N[C@@H](CCCCN)C(=O)N[C@@H](CCCNC(=N)N)C(=O)N[C@@H](Cc1ccc(O)cc1)C(=O)N[C@@H](CO)C(=O)N[C@@H](CCCNC(=N)N)C(=O)N[C@@]1(C)CCCC=CCCC[C@@](C)(C(=O)N[C@@H](Cc2ccccc2)C(N)=O)NC(=O)[C@H](CC(C)C)NC(=O)[C@H](CC(C)C)NC(=O)[C@H](Cc2ccccc2)NC1=O` (Ac-KKRYSR[S5]FLL[S5]F-NH2; staple 7-11) had a helicity of 24%.
`CC(=O)N[C@@H](CCCCN)C(=O)N[C@@H](CCCCN)C(=O)N[C@@H](CCCNC(=N)N)C(=O)N[C@@H](Cc1ccc(O)cc1)C(=O)N[C@@H](CO)C(=O)N[C@@H](CCCNC(=N)N)C(=O)NC(C)(C)C(=O)N[C@@H](Cc1ccccc1)C(=O)N[C@@H](CC(C)C)C(=O)N[C@@H](CC(C)C)C(=O)NC(C)(C)C(N)=O` (Ac-KKRYSR[Aib]FLL[Aib]-NH2) displayed a helicity in “circular dichroism” of 7%.
The molecule `CC(=O)N[C@@H](CCCCN)C(=O)N[C@@H](CCCCN)C(=O)N[C@@H](CCCNC(=N)N)C(=O)N[C@@H](Cc1ccc(O)cc1)C(=O)N[C@@H](CO)C(=O)N[C@@H](CCCNC(=N)N)C(=O)N[C@@]1(C)CCCC=CCCC[C@@](C)(C(=O)N[C@@H](Cc2ccccc2)C(N)=O)NC(=O)[C@H](CC(C)C)NC(=O)[C@H](CC(C)C)NC(=O)[C@H](C)NC1=O` (relative stereo) [sTIP-01^F8A, KKRYSR*ALL*F] returned a helicity in the data set “circular dichroism” of 80%. On eIF4E, the “affinity / binding to eIF4E (in words)” value is “improved Kd values as compared to sTIP-01”.
As to “Ac-KKRYSREFLLGF-NH2 [eIF4G^D5S, reference compound]”, the helicity in the data set “circular dichroism” is 0%. Further, the “Helicity (%)” value in data set [1] is reported as 0%.
In “circular dichroism”, `CC(=O)N[C@@H](CCCCN)C(=O)N[C@@H](CCCCN)C(=O)N[C@@H](CCCNC(=N)N)C(=O)N[C@@H](Cc1ccc(O)cc1)C(=O)N[C@@H](CO)C(=O)N[C@@H](CCCNC(=N)N)C(=O)N[C@@]1(C)CCCC=CCCC[C@@](C)(C(N)=O)NC(=O)[C@H](CC(C)C)NC(=O)[C@H](CC(C)C)NC(=O)[C@H](Cc2ccccc2)NC1=O` (Ac-KKRYSR[S5]FLL[S5]-NH2; staple 7-11) yielded a helicity of 72%.
Take `CC[C@H](NC(=O)C(C)(C)NC(=O)[C@H](CC(C)C)NC(=O)[C@H](CC(C)C)NC(=O)[C@H](Cc1ccccc1)NC(=O)C(C)(C)NC(=O)[C@H](CCCNC(=N)N)NC(=O)[C@H](CO)NC(=O)[C@H](Cc1ccc(O)cc1)NC(=O)[C@H](CCCNC(=N)N)NC(=O)[C@H](CCCCN)NC(=O)[C@H](CCCCN)NC(C)=O)C(N)=O` [TIP-01^F12&, KKRYSRXFLLX&] (Ac-KKRYSR[Aib]FLL[Aib][Abu]-NH2): the helicity in the data set “circular dichroism” was found to be 11%. In addition, the “Helicity (%)” value in data set [1] amounted to 11%.
In turn, `CC(=O)N[C@@H](CCCCN)C(=O)N[C@@H](CCCCN)C(=O)N[C@@H](CCCNC(=N)N)C(=O)N[C@@H](Cc1ccc(O)cc1)C(=O)N[C@@H](CO)C(=O)N[C@@H](CCCNC(=N)N)C(=O)NC(C)(C)C(=O)N[C@@H](CCC(N)=O)C(=O)N[C@@H](CC(C)C)C(=O)N[C@@H](CC(C)C)C(=O)NC(C)(C)C(=O)N[C@@H](CC(C)C)C(N)=O` [TIP-04, KKRYSRXQLLXL] showed a helicity in “circular dichroism” of 4%. In addition, the “Helicity (%)” value in data set [1] was determined as 4%.
In “circular dichroism”, `CC(=O)N[C@@H](CCCCN)C(=O)N[C@@H](CCCCN)C(=O)N[C@@H](CCCNC(=N)N)C(=O)N[C@@H](Cc1ccc(O)cc1)C(=O)N[C@@H](CO)C(=O)N[C@@H](CCCNC(=N)N)C(=O)NC(C)(C)C(=O)N[C@@H](Cc1ccccc1)C(=O)N[C@@H](CC(C)C)C(=O)N[C@@H](CC(C)C)C(=O)NC(C)(C)C(=O)N[C@@H](Cc1ccccc1)C(N)=O` (Ac-KKRYSR[Aib]FLL[Aib]F-NH2) yielded a helicity of 2%.
Molecule `CC(=O)N[C@@H](CCCCN)C(=O)N[C@@H](CCCCN)C(=O)N[C@@H](CCCNC(=N)N)C(=O)N[C@@H](Cc1ccc(O)cc1)C(=O)N[C@@H](CO)C(=O)N[C@@H](CCCNC(=N)N)C(=O)N[C@@H](CCC(=O)O)C(=O)N[C@@]1(C)CCCC=CCCC[C@@](C)(C(N)=O)NC(=O)CNC(=O)[C@H](CC(C)C)NC(=O)[C@H](CC(C)C)NC1=O` [sTIP-02, KKRYSRE*LLG*] came in with a helicity in “circular dichroism” of 18%. Also, on eIF4E, the “Kd (in words)” value is recorded as “nanomolar range” and the “affinity / binding to eIF4E (in words)” value is reported as “no improvement in binding over eIF4G^D5S”.
